Experimental data: PMC4660432

Experiments:
[1] = test system: TAF1 double bromodomain (TAF1-BrD); experiment: EMSA; settings: EMSA: 20 mM Tris-HCl pH 7.5, 40 mM NaCl, 0.75 mM EDTA, 1 mM DTT, 1 h at 25 C, 2.5 pmol NCP, 5% native PAGE in 0.2x TBE
[2] = molecular target: K16-acetylated nucleosome core particle (human) (UniProt P04908); experiment: native gel or EMSA; 2.5 pmol NCP mixed with the TAF1-BrD at the indicated ratios; 20 mM Tris-HCl pH 7.5, 40 mM NaCl, 0.75 mM EDTA, 1 mM DTT; 1 hr at 25 °C; native 5% PAGE in 0.2x TBE; densitometry; dissociation constants estimated from triplicates
[3] = molecular target: K12-acetylated nucleosome core particle (human) (UniProt P04908); experiment: as above
[4] = molecular target: K5/K8/K12/K16-tetra-acetylated nucleosome core particle (biochemical analyses; N11-thrombin-tagged H4) (human) (UniProt P04908); experiment: as above
[5] = molecular target: K5/K8-di-acetylated nucleosome core particle (human) (UniProt P04908); experiment: as above
[6] = molecular target: unmodified nucleosome core particle (biochemical analyses; N11-thrombin-tagged H4) (human) (UniProt P04908); experiment: as above

Work on H4-K16ac NCP yielded a Kd ([1]; histone H4 K16ac) of 13.3 µM.

Work on H4-K12ac NCP yielded a Kd ([1]; histone H4 K12ac) of 12.3 µM.

In the case of unmodified NCP, the Kd [1] is reported as 19.3 µM.

Work on H4-K5/K8-di-acetylated NCP yielded a Kd ([1]; histone H4 K5ac, K8ac) of 6.1 µM.

H4-K5/K8/K12/K16-tetra-acetylated NCP was tested, and the Kd ([1]; histone H4 K5ac, K8ac, K12ac, K16ac) was 3.9 µM.

Work on “TAF1 double bromodomain (from UniProt P21675 1-1893) (domain or fragment)” yielded a Kd [2] of 13.3 µM, a Kd [3] of 12.3 µM and a Kd [4] of 3.9 µM. For the same substance, the Kd [5] was 6.1 µM and the Kd [6] was 19.3 µM.
